Source: paper PMC10010325

Legend:
[1] = biological target: human CLDN18.2 (Claudin18.2), P56856-2; experiment: not named in legend (MFI read-out, antibody titration on CLDN18.2); settings: value read at the highest antibody concentration, log10(µg/mL) about 1.5; read off a plot
[2] = biological target: Fcγ receptor type IIIA (CD16A), low affinity F158 (UniProt P08637); experiment: not named in legend (luminescence read-out, antibody titration on CD16A F158); settings: value read at the highest antibody concentration, log10(µg/mL) about -1; parent: est. 4400; read off a plot
UniProt P08637, sequence (P08637 17-254): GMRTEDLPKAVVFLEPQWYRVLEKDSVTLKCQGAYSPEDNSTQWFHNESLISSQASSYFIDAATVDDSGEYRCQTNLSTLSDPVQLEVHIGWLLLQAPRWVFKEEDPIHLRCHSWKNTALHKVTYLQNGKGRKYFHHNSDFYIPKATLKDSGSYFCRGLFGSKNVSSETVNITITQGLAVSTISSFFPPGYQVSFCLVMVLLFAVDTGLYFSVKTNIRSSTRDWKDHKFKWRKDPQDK

response [1]: 35000 MFI | response [2]: 5000 luminescence
Substance: ZL-1211 wild-type (WT) Fc Fc mutations for enhanced ADCC (substitutions not printed)
